This is an account of results in US12097241B2, “Methods of treating kidney failure, and/or improving or stablizing renal function using modified relaxin polypeptides” (BRISTOL-MYERS SQUIBB COMPANY, priority 2017, dated 2024).

This series can be described thus: In vivo pharmacokinetic (PK) studies in rats. Further details: species or system Sprague-Dawley rats. The following applies: rat, male Sprague-Dawley rats, single SC dose 1.0 mg/kg, serum ELISA; for AUC(0-inf): read-out: Rat PK AUC Total; for level at time molar at 24 h: read-out: Rat PK C24. The method, then:
[…] Blood samples were collected via jugular vein at different time points out to 72 hours. Blood samples were allowed to coagulate at room temperature (30-60 m) and then centrifuged (1500-2000) at 4° C. to obtain serum. After centrifugation serum samples were transferred to 96 well plates and stored at −80° C. until bioanalysis. Relaxin concentrations were measured from serum by ELISA.
Relaxin concentration-time profiles from individual animals were used for analysis. Pharmacokinetic parameters were calculated by non-compartmental methods using Phoenix WinNonlin (version 6.4) or Kinetica (version 5). Mean pharmacokinetic parameters Cmax, AUCinf, C24 and half-life were reported (Table 4). Table 4. In vivo PK data (abbreviations as in Table 3).

Take `CC[C@H](C)[C@@H]1NC(=O)[C@H](C)NC(=O)[C@H]([C@@H](C)CC)NC(=O)[C@H](CCC(N)=O)NC(=O)[C@H](C)NC(=O)[C@H](CCCNC(=N)N)NC(=O)[C@H](C(C)C)NC(=O)[C@H](CC(C)C)NC(=O)[C@H](CCC(=O)O)NC(=O)[C@H](CCCNC(=N)N)NC(=O)CNC(=O)[C@@H](NC(=O)[C@H](CC(C)C)NC(=O)[C@H](CCCCN)NC(=O)[C@@H](NC(=O)[C@@H](NC(=O)[C@H](CCC(=O)O)NC(=O)[C@H](CCC(=O)O)NC(=O)[C@H](CCSC)NC(=O)[C@H](Cc2c[nH]c3ccccc23)NC(=O)[C@H](CO)NC(=O)[C@H](C)N)C(C)C)[C@@H](C)CC)CSSC[C@@H]2NC(=O)[C@@H](NC(=O)[C@H](CCCCN)NC(=O)[C@H](CC(N)=O)NC(=O)[C@H](C)NC(=O)[C@H](CC(C)C)NC(=O)[C@H](C)NC(=O)[C@H](CO)NC(=O)[C@H](Cc3ccc(O)cc3)NC(=O)[C@H](CC(C)C)NC(=O)[C@@H](N)Cc3ccc(C(C)=NOCCNC(=O)CNC(=O)CNC(=O)CNC(=O)[C@H](CCCCN)NC(=O)[C@H](CCCCN)NC(=O)[C@H](CCCCN)NC(=O)CC[C@H](NC(=O)CCCCCCCCCCCCC(=O)O)C(=O)O)cc3)CSSC[C@H](NC(=O)CNC(=O)[C@H](C(C)C)NC(=O)[C@H](Cc3c[nH]cn3)NC2=O)C(=O)N[C@@H]([C@@H](C)O)C(=O)N[C@@H](CCCCN)C(=O)N[C@@H](CCCNC(=N)N)C(=O)N[C@@H](CO)C(=O)N[C@@H](CC(C)C)C(=O)N[C@@H](C)C(=O)N[C@@H](CCCNC(=N)N)C(=O)N[C@@H](Cc2ccccc2)C(=O)N[C@H](C(=O)O)CSSC[C@@H](C(=O)NCC(=O)N[C@@H](CCSC)C(=O)N[C@@H](CO)C(=O)N[C@H](C(=O)N[C@@H](Cc2c[nH]c3ccccc23)C(=O)N[C@@H](CO)C(=O)O)[C@@H](C)O)NC1=O` [AQ1-GGGKKK-Glu^γ-C13-COOH]: the AUC(0-inf) is 0.231 µM·h and the level at time molar at 24 h came out at 0.1 nM.
As to `CC[C@H](C)[C@@H]1NC(=O)[C@H](C)NC(=O)[C@H]([C@@H](C)CC)NC(=O)[C@H](CCC(N)=O)NC(=O)[C@H](C)NC(=O)[C@H](CCCNC(=N)N)NC(=O)[C@H](C(C)C)NC(=O)[C@H](CC(C)C)NC(=O)[C@H](CCC(=O)O)NC(=O)[C@H](CCCNC(=N)N)NC(=O)CNC(=O)[C@@H](NC(=O)[C@H](CC(C)C)NC(=O)[C@H](CCCCN)NC(=O)[C@@H](NC(=O)[C@@H](NC(=O)[C@H](CCC(=O)O)NC(=O)[C@H](CCC(=O)O)NC(=O)[C@H](CCSC)NC(=O)[C@H](Cc2c[nH]c3ccccc23)NC(=O)[C@H](CO)NC(=O)[C@H](C)N)C(C)C)[C@@H](C)CC)CSSC[C@@H]2NC(=O)[C@@H](NC(=O)[C@H](CCCCN)NC(=O)[C@H](CC(N)=O)NC(=O)[C@H](C)NC(=O)[C@H](CC(C)C)NC(=O)[C@H](C)NC(=O)[C@H](CO)NC(=O)[C@H](Cc3ccc(O)cc3)NC(=O)[C@H](CC(C)C)NC(=O)[C@@H](N)Cc3ccc(C(C)=NOCCNC(=O)[C@H](CCCCN)NC(=O)[C@H](CCCCN)NC(=O)CC[C@H](NC(=O)CCCCCCCCCCCCCCC(=O)O)C(=O)O)cc3)CSSC[C@H](NC(=O)CNC(=O)[C@H](C(C)C)NC(=O)[C@H](Cc3c[nH]cn3)NC2=O)C(=O)N[C@@H]([C@@H](C)O)C(=O)N[C@@H](CCCCN)C(=O)N[C@@H](CCCNC(=N)N)C(=O)N[C@@H](CO)C(=O)N[C@@H](CC(C)C)C(=O)N[C@@H](C)C(=O)N[C@@H](CCCNC(=N)N)C(=O)N[C@@H](Cc2ccccc2)C(=O)N[C@H](C(=O)O)CSSC[C@@H](C(=O)NCC(=O)N[C@@H](CCSC)C(=O)N[C@@H](CO)C(=O)N[C@H](C(=O)N[C@@H](Cc2c[nH]c3ccccc23)C(=O)N[C@@H](CO)C(=O)O)[C@@H](C)O)NC1=O` [AQ1-KK-Glu^γ-C15-COOH], the AUC(0-inf) worked out at 0.82 µM·h and the level at time molar at 24 h came to 8.8 nM.
The matching figures for `CC[C@H](C)[C@@H]1NC(=O)[C@H](C)NC(=O)[C@H]([C@@H](C)CC)NC(=O)[C@H](CCC(N)=O)NC(=O)[C@H](C)NC(=O)[C@H](CCCNC(=N)N)NC(=O)[C@H](C(C)C)NC(=O)[C@H](CC(C)C)NC(=O)[C@H](CCC(=O)O)NC(=O)[C@H](CCCNC(=N)N)NC(=O)CNC(=O)[C@@H](NC(=O)[C@H](CC(C)C)NC(=O)[C@H](CCCCN)NC(=O)[C@@H](NC(=O)[C@@H](NC(=O)[C@H](CCC(=O)O)NC(=O)[C@H](CCC(=O)O)NC(=O)[C@H](CCSC)NC(=O)[C@H](Cc2c[nH]c3ccccc23)NC(=O)[C@H](CO)NC(=O)[C@H](C)N)C(C)C)[C@@H](C)CC)CSSC[C@@H]2NC(=O)[C@@H](NC(=O)[C@H](CCCCN)NC(=O)[C@H](CC(N)=O)NC(=O)[C@H](C)NC(=O)[C@H](CC(C)C)NC(=O)[C@H](C)NC(=O)[C@H](CO)NC(=O)[C@H](Cc3ccc(O)cc3)NC(=O)[C@H](CC(C)C)NC(=O)[C@@H](N)Cc3ccc(C(C)=NOCCNC(=O)CNC(=O)CNC(=O)CNC(=O)[C@H](CCC(=O)O)NC(=O)[C@H](CCC(=O)O)NC(=O)[C@H](CCC(=O)O)NC(=O)CC[C@H](NC(=O)CCCCCCCCCCCCC(=O)O)C(=O)O)cc3)CSSC[C@H](NC(=O)CNC(=O)[C@H](C(C)C)NC(=O)[C@H](Cc3c[nH]cn3)NC2=O)C(=O)N[C@@H]([C@@H](C)O)C(=O)N[C@@H](CCCCN)C(=O)N[C@@H](CCCNC(=N)N)C(=O)N[C@@H](CO)C(=O)N[C@@H](CC(C)C)C(=O)N[C@@H](C)C(=O)N[C@@H](CCCNC(=N)N)C(=O)N[C@@H](Cc2ccccc2)C(=O)N[C@H](C(=O)O)CSSC[C@@H](C(=O)NCC(=O)N[C@@H](CCSC)C(=O)N[C@@H](CO)C(=O)N[C@H](C(=O)N[C@@H](Cc2c[nH]c3ccccc23)C(=O)N[C@@H](CO)C(=O)O)[C@@H](C)O)NC1=O` [AQ1-GGGEEE-Glu^γ-C13-COOH]: 0.866 µM·h and 0.18 nM.
For `CC[C@H](C)[C@@H]1NC(=O)[C@H](C)NC(=O)[C@H]([C@@H](C)CC)NC(=O)[C@H](CCC(N)=O)NC(=O)[C@H](C)NC(=O)[C@H](CCCNC(=N)N)NC(=O)[C@H](C(C)C)NC(=O)[C@H](CC(C)C)NC(=O)[C@H](CCC(=O)O)NC(=O)[C@H](CCCNC(=N)N)NC(=O)CNC(=O)[C@@H](NC(=O)[C@H](CC(C)C)NC(=O)[C@H](CCCCN)NC(=O)[C@@H](NC(=O)[C@@H](NC(=O)[C@H](CCC(=O)O)NC(=O)[C@H](CCC(=O)O)NC(=O)[C@H](CCSC)NC(=O)[C@H](Cc2c[nH]c3ccccc23)NC(=O)[C@H](CO)NC(=O)[C@H](C)N)C(C)C)[C@@H](C)CC)CSSC[C@@H]2NC(=O)[C@@H](NC(=O)[C@H](CCCCN)NC(=O)[C@H](CC(N)=O)NC(=O)[C@H](C)NC(=O)[C@H](CC(C)C)NC(=O)[C@H](C)NC(=O)[C@H](CO)NC(=O)[C@H](Cc3ccc(O)cc3)NC(=O)[C@H](CC(C)C)NC(=O)[C@@H](N)Cc3ccc(C(C)=NOCCNC(=O)[C@H](CCC(=O)O)NC(=O)[C@H](CCC(=O)O)NC(=O)[C@H](CCC(=O)O)NC(=O)CNC(=O)CNC(=O)CNC(=O)CC[C@H](NC(=O)CCCCCCCCCCCCCCC(=O)O)C(=O)O)cc3)CSSC[C@H](NC(=O)CNC(=O)[C@H](C(C)C)NC(=O)[C@H](Cc3c[nH]cn3)NC2=O)C(=O)N[C@@H]([C@@H](C)O)C(=O)N[C@@H](CCCCN)C(=O)N[C@@H](CCCNC(=N)N)C(=O)N[C@@H](CO)C(=O)N[C@@H](CC(C)C)C(=O)N[C@@H](C)C(=O)N[C@@H](CCCNC(=N)N)C(=O)N[C@@H](Cc2ccccc2)C(=O)N[C@H](C(=O)O)CSSC[C@@H](C(=O)NCC(=O)N[C@@H](CCSC)C(=O)N[C@@H](CO)C(=O)N[C@H](C(=O)N[C@@H](Cc2c[nH]c3ccccc23)C(=O)N[C@@H](CO)C(=O)O)[C@@H](C)O)NC1=O` [AQ1-EEEGGG-Glu^γ-C15-COOH], in that order: 3.55 µM·h and 22 nM.
The matching figures for `CC[C@H](C)[C@@H]1NC(=O)[C@H](C)NC(=O)[C@H]([C@@H](C)CC)NC(=O)[C@H](CCC(N)=O)NC(=O)[C@H](C)NC(=O)[C@H](CCCNC(=N)N)NC(=O)[C@H](C(C)C)NC(=O)[C@H](CC(C)C)NC(=O)[C@H](CCC(=O)O)NC(=O)[C@H](CCCNC(=N)N)NC(=O)CNC(=O)[C@@H](NC(=O)[C@H](CC(C)C)NC(=O)[C@H](CCCCN)NC(=O)[C@@H](NC(=O)[C@@H](NC(=O)[C@H](CCC(=O)O)NC(=O)[C@H](CCC(=O)O)NC(=O)[C@H](CCSC)NC(=O)[C@H](Cc2c[nH]c3ccccc23)NC(=O)[C@H](CO)NC(=O)[C@H](C)N)C(C)C)[C@@H](C)CC)CSSC[C@@H]2NC(=O)[C@@H](NC(=O)[C@H](CCCCN)NC(=O)[C@H](CC(N)=O)NC(=O)[C@H](C)NC(=O)[C@H](CC(C)C)NC(=O)[C@H](C)NC(=O)[C@H](CO)NC(=O)[C@H](Cc3ccc(O)cc3)NC(=O)[C@H](CC(C)C)NC(=O)[C@@H](N)Cc3ccc(C(C)=NOCCNC(=O)CNC(=O)[C@H](CCC(=O)O)NC(=O)[C@@H](NC(=O)CNC(=O)[C@H](CO)NC(=O)[C@H](CO)NC(=O)CNC(=O)[C@H](CCC(=O)O)NC(=O)CNC(=O)[C@@H](NC(=O)CC[C@H](NC(=O)CCCCCCCCCCCCC(=O)O)C(=O)O)[C@@H](C)O)[C@@H](C)O)cc3)CSSC[C@H](NC(=O)CNC(=O)[C@H](C(C)C)NC(=O)[C@H](Cc3c[nH]cn3)NC2=O)C(=O)N[C@@H]([C@@H](C)O)C(=O)N[C@@H](CCCCN)C(=O)N[C@@H](CCCNC(=N)N)C(=O)N[C@@H](CO)C(=O)N[C@@H](CC(C)C)C(=O)N[C@@H](C)C(=O)N[C@@H](CCCNC(=N)N)C(=O)N[C@@H](Cc2ccccc2)C(=O)N[C@H](C(=O)O)CSSC[C@@H](C(=O)NCC(=O)N[C@@H](CCSC)C(=O)N[C@@H](CO)C(=O)N[C@H](C(=O)N[C@@H](Cc2c[nH]c3ccccc23)C(=O)N[C@@H](CO)C(=O)O)[C@@H](C)O)NC1=O` [AQ1-GETGSSGEGT-Glu^γ-C13-COOH]: 1.11 µM·h and 0.28 nM.
